Results from patent US12116698.
Where no end group is shown, it is not given here. [ ]: non-standard residue; d: D form. fluorescent label = not defined here; Dap = NC[C@H](N)C(=O)O; Cm = not defined here

T1: sortase A (SrtA) (S. aureus), Q2FV99
T1 chain: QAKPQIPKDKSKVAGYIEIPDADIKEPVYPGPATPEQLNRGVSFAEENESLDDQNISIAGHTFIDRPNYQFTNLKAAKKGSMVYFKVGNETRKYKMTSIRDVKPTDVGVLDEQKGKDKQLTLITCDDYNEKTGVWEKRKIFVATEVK

B1: W1 (peptide)
peptide: ACHPVSGQKCGGG[Dap](fluorescent label)
modifications: not fully specified (residues 2, 10); cysteine pairing not given here; reading uncertain; also: Cm code not defined, fluorescent label not named
B2: W2 (peptide)
peptide: ACLNSSQPSCGGG[Dap](fluorescent label)
modifications: not fully specified (residues 2, 10); cysteine pairing not given here; reading uncertain; also: Cm code not defined, fluorescent label not named

Assays:
[1] = target: T1, sortase A (SrtA) (S. aureus), Q2FV99; experiment: mean fluorescence intensity of SrtA-coated beads against peptide concentration, curve fit
[2] = target: T1, sortase A (SrtA) (S. aureus), Q2FV99; experiment: fluorescence polarization (anisotropy), SrtA titrated into peptide solution
Streptavidin, P22629 = experiment: fluorescence intensity of streptavidin-coated beads at varied peptide concentrations, hyperbola fit
Streptavidin, P22629, sequence (P22629 37-163 limits assumed): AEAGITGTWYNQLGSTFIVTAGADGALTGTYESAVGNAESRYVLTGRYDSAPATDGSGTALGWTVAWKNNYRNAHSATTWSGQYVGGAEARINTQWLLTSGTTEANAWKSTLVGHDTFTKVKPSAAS

Binder	Kd [1] [µM]	Kd [2] [µM]	Kd (Streptavidin, P22629) [µM]
B1	14	–	–
B2	14	12	–
A[Cm]TPRSANY[Cm]GGG[Dap](fluorescent label) (not fully specified; reading uncertain; also: fluorescent label not named) [SA1]	–	–	6
A[Cm]DGRPDRA[Cm]GGG[Dap](fluorescent label) (not fully specified; reading uncertain; also: fluorescent label not named) [SA2]	–	–	9
